Measurements taken from US20170037110A1 (IMMATICS BIOTECHNOLOGIES, published 2017).
Blank lines part the entries; values can stand above or below the binder they belong to.

Columns and labels:
HLA-A*02:01 [1] = molecular target: T1, HLA-A*02:01 (human); assay: pMHC used for negative control stimulations, biotin-pMHC on streptavidin beads
T1 construct: Construct limits and biotin tag are not described

HLA-A*02:01 [2] = molecular target: T1, HLA-A*02:01; assay: pMHC complex coated on artificial APCs and used as fluorescent multimer A*02/SeqID No 663

- binding result (HLA-A*02:01 [1]): binds
B1: DDX5-001 (YLLPAIVHI from DDX5) (peptide)
peptide: YLLPAIVHI
notes: Peptide of the negative control pMHC for the T-cell stimulations; also called 665

- binding result (HLA-A*02:01 [2]): binds
B2: SeqID No 663 peptide (KIQEMQHFL) (peptide)
peptide: KIQEMQHFL
notes: also called MMP12 peptide
